In the RNAGym collection of RNA variant scans (doi:10.1073/pnas.2313332121):
This sample holds only a part of the variants without activity.

B1: TPR 5TU (parent)
chain: GGAUCUUCUCGAUCUAACAAAAAAGACAAAUCUGCCACAAAGCUUGAGAGCAUCUUCGGAUGCAGAGGCGGCAGCCUUCGGUGGCGCGAUAGCGCCAACGUUCUCAACUAUGACACGCAAAACGCGUGCUCCGUUGAAUGGAGUUUAUCAUG

Variants of: B1
Test: polymerase ribozyme fitness, log enrichment relative to wild type (log ratio); higher = more active; in vitro selection for triplet polymerase activity
How it was run: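 Each subunit of a heterodimeric triplet polymerase ribozyme was mutagenized into a library by PCR, transcribed, and subjected to one round of in vitro selection, run in triplicate. Libraries were annealed with a biotinylated primer, the partner subunit and triplets, incubated frozen at −7 °C, and extended constructs were gel-excised, captured on streptavidin beads and recovered by RT-PCR. Input and output libraries were sequenced on Illumina, keeping genotypes with ≥10 input reads and ≥1 read per output. Fitness is log base 2 of genotype enrichment divided by wild-type enrichment, from inverse-variance-weighted replicate averages.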

| Variant | polymerase ribozyme fitness (log ratio) |
| --- | --- |
| A26C A52C U53A | ≤ -4.2 |
| A26C C38U G86U U144G | -3.75 |
| G25C U53A U61A C95G | -4.18 |
| G25U C76U | -2.44 |
| A26C C76U G81U G86A U144C | -3.81 |
| G25C C93U | -3.59 |
| A26C G42A A107C | ≤ -4.2 |
| A26C A73G C105U U146G | -3.66 |
| G25U A41G U53G C54U G92C G124A U151C | ≤ -4.2 |
| G25U A37C G83A U134C | -2.66 |
| G25C C57A C63A G92C A113C U134A | ≤ -4.2 |
| A26C C96U G124A | -1.67 |
| A26U C51U C114U C129U | ≤ -4.2 |
| A26U A60G C69A A97U C114U U135C | ≤ -4.2 |
| A26U G34U G59C G62A C75G C93G U104A G152A | ≤ -4.2 |
| A26G G48A | ≤ -4.2 |
| A26U G46U G48U G81U G83C C99G | ≤ -4.2 |
| A26U A91G A115G A150C | ≤ -4.2 |
| A26U G46U | -3.87 |
| A26G C72U U78G C85G | ≤ -4.2 |
| A26G C99U | -3.69 |

| Variant | polymerase ribozyme fitness (log ratio) |
| --- | --- |
| G25C G48C A66G C93A | ≤ -4.2 |
| G25C U61A C87G A138G | ≤ -4.2 |
| A26G U44A C54U C87A C99U U111G G143U | ≤ -4.2 |
| G25U A39G U61A U77A C87U G141A U151A | ≤ -4.2 |
| G25C C57U C123A C125G | -2.33 |
| A26U G46U G58A A73U C85G U111G A150U | ≤ -4.2 |
| A26U A40U A91U A122U | ≤ -4.2 |
| A26C A41G C54U C75G G88A A107G | ≤ -4.2 |
| A26C G42A G46C A49G A52C C54U A91U C99U U109G C132U G140U | ≤ -4.2 |
| A26U C43A A49G G58C C93U G112A | ≤ -4.2 |
| A26U C69G A142U | -2.62 |
| A26G A40C C63U G80U G92A G126U A142U | ≤ -4.2 |
| A26C G83A G126A A137G | ≤ -4.2 |
| C27A A28U A39C C54G C96A | ≤ -4.2 |
| A26C U134G | -4.1 |
| G25U A30G A47G C51U G80C A110C | ≤ -4.2 |
| C27A A106C A113U C125A | ≤ -4.2 |
| A26U G92C | -3.52 |
| A26C U56A A60U U82G | -2.45 |
| A26U G83U C95G C105A G141A U146C U151C | ≤ -4.2 |
| A26C C93G U139G G140U | -4.11 |

| Variant | polymerase ribozyme fitness (log ratio) |
| --- | --- |
| A26G C32A A39C C54A A150G | ≤ -4.2 |
| A26C C96A A120G G124U | -2.02 |
| G25U U61G C99G A106G A107U A150G | ≤ -4.2 |
| G25U A49C G68U G84A C87G A89U G94C C114A U148G | ≤ -4.2 |
| A26U U31A U44G C75G U102G A120C | ≤ -4.2 |
| A26C C51G G65A G74C G81U C93G A119U C132U G141C | ≤ -4.2 |
| A26C C75U G92C | ≤ -4.2 |
| A26C C35U U44A C57U G58U C85A | ≤ -4.2 |
| C27A C54G C105U | ≤ -4.2 |
| G25U C85U C116G A120U G141C | ≤ -4.2 |
| A26U U44A G58A C87U A107G C123G G141C | -3.93 |
| G25C G83C C87G A91G | ≤ -4.2 |
| G25U C35U A49U G68A G81A U109G C118U G126C | ≤ -4.2 |
| A26U A49U G68U C72U G84A G86U G112A A122G | ≤ -4.2 |
| A26C A30C U45A C54G G92A U104G A147G | ≤ -4.2 |
| A26C C93A | -3.21 |
| A26C G81A C85G C87A G141U C149G | ≤ -4.2 |
| A26U C35U U55A C96G G124A | ≤ -4.2 |
| A26C A64G G83U C85G A115G | ≤ -4.2 |
| A26U C85U | -1.63 |
| A26U A89G | -3.26 |

| Variant | polymerase ribozyme fitness (log ratio) |
| --- | --- |
| G25U A66U C93U G94U C125A G126U | ≤ -4.2 |
| C27A | -2.95 |
| G25C G83U | -2.85 |
| A26U C51U G58C | -2.08 |
| A26U G94C | -2.1 |
| A26U A49U A137G | ≤ -4.2 |
| A26U G86A | -2.74 |
| A26U U45A G83U G92C A122U | ≤ -4.2 |
| G25U U55A C72G C93G G140A | ≤ -4.2 |
| A26C C38G G68C C76U G84U U139G | ≤ -4.2 |
| G25C G86A A122U | ≤ -4.2 |
| A26C C57G G80A | -4.09 |
| G25U G71C U145G | ≤ -4.2 |
| G25C C87A G100U | ≤ -4.2 |
| G25C G50U C96U A97U | -3.33 |
| G25U C85G C132G | ≤ -4.2 |
| A26G C35U | -3.06 |
| A26U C54A U56G C75A C93A U134A | ≤ -4.2 |
| A26G C32U U33G A49U A91U | ≤ -4.2 |
| A26U C72G G81A G86C | ≤ -4.2 |
| A26C A107G | ≤ -4.2 |
